The text below walks through data of US10078082B2, “Detection of free and protein-bound non-human gal-alpha(1-3)-gal epitope” (National University of Ireland, Galway, priority 2012, dated 2018).

“And” between values parts separate entries of the source, which are not always exact repeats. Equal values may be shown once.

One series has as its system scFv A4. Nature of the series: Competitive ELISA specificity study: inhibition of scFv binding to Gal-α-(1→3)-Gal-BSA by free sugars. Details: species or system chicken. Particulars: highest concentration 1 mg/mL. As for the experimental part:
(§1) Each scFv was evaluated in a competitive ELISA format using free Gal-α-(1,3)-Gal as standard. Microtitre plate wells were coated and blocked as previously described. Standard solutions were prepared in PBS (pH 7.2), ranging in concentration from 2 μg/ml (5.84 μM) to 20 mg/ml (58.4 mM). For the assay, 50 μl of each standard and buffer blank were added to designated wells in triplicate, followed by 50 μl of a sub-saturating concentration (1 μg/ml) of the appropriate scFv, giving a final standard concentration in the assay of 1 μg/ml (2.92 μM) to 10 mg/ml (29.2 mM). The plate was incubated for 1 hour at 37° C. with shaking After washing, bound scFv was detected as previously described. The ratios of the OD for each standard versus the OD given by the blank (B/Bo) were plotted versus standard concentration and standard curve plotted using SigmaPlot (v11, Systat Software Inc). The detection limits were determined as the concentration corresponding to the mean response for zero standard minus three times the standard deviation (SD). Inhibition of scFv by a panel of free sugars. scFv binding to Gal-α-(1→3)-Gal-BSA was determined against a panel of 21 free form sugars; D-Cellibiose, Melibiose, D-Raffinose, Lactulose, Palatinose, β-Gentibiose, D+ Trehalose, D+ Turanose, L− Fructose, D+ Glucose, Sucrose, Galacto-N-biose, 4β-Galactobiose, gal-α(1-3)-gal-β-(1-4)-gal, gal-α(1-3)-gal-β-(1-4)-glc, gal-α(1-3)-gal-β-(1-4)-gal-all-3)-gal, Laminarbiose, β1-4-D-Xylobiose, N-Acetyl-D-glucoseamine (GlcNAc), Galactose, N-Acetyl-D-lactosamine (LacNAc), (sourced from Sigma Aldrich and Dextra, UK). Inhibitions were performed by serial dilutions of free sugars and a sub-saturating concentration scFv added to each dilution and pre-incubated for 60 minutes at 37° C., prior to performing ELISA against Gal-α-(1→3)-Gal-BSA as used throughout. The percent binding of the scFv was plotted against the […], and the 50% effective dose determined (ED50; dose of free sugar causing 50% displacement of the scFv).

For a further series, the system named is scFv A11. Described as above. On the set-up: species or system chicken. The conditions noted are these: highest concentration 1 mg/mL. The procedure:
as §1

A further series relates to scFv G12. The series is described as above. On the set-up: species or system chicken. Particulars: highest concentration 1 mg/mL. As for the experimental part: as §1
Series [1] is described as follows: NGC microarray specificity analysis (over 50 structures). It is filed as binding. Particulars: FIG. 8. The source says: FIG. 8: Comparison of the specificity of selected scFv fragments A4, A11 and G12 against a panel of related NGCs compared directly to the specificity binding pattern of the lectin GS-1-B4, considered as highly specific for α-Gal residues.
The spectacular specificity of the scFvs has also been determined by analysis on an NGC microarray containing over 50 different structures. […] ScFv-based competitive ELISA. Competitive ELISAs were established with each of the three scFvs examined using as standard the free Gal-α-(1→3)-Gal disaccharide within the concentration range 0.001 to 10000 μg/ml (2.93 nM to 29.3 mM). […] A panel of 21 related sugars were tested in the scFv-based competitive assays (Table 1). […] All three scFvs were more reactive to the disaccharide than Gal-α-(1,3)-Gal-containing trisaccharides, as shown by lower inhibitory activity of the trisaccharides and supporting the results obtained in the direct ELISA.

The nature of series [2]: Thermal denaturation monitored by far UV CD ellipticity. It is filed as physicochemical. The procedure: (§2) Two types of experiments were performed: firstly, the near UV circular dichroism (CD) spectra of the scFvs in the absence and presence of 4 mM of both disaccharides have been compared. Secondly, the effect of the disaccharides on the thermal stability of the scFvs has been studied.
Samples were diluted in NaPi (10 mM)-NaCl (150 mM) pH 7.2 and either concentrated by ultrafiltration twice (for small amounts) or exhaustively dialyzed. CD spectra were acquired at 20° C. in a J-810 spectropolarimeter, equipped with a Peltier temperature control system, using a bandwidth of 1 nm, a scan rate of 20 nm/min and a response time of 4 s, collecting data every 0.2 nm and 3 accumulations for each spectrum. Near-UV spectra were registered at around 1.0 mg ml^−1 protein concentration in 1-cm path-length cells while far-UV spectra were recorded in 0.1 cm path-length quartz cells at a protein concentration of around 0.2 mg ml^−1. For all CD spectra, the corresponding buffer baseline was subtracted. […] Ellipticity changes were collected every 0.2° C. and spectra were collected every 10° C. The thermal denaturation profiles were fitted to a sigmoidal function using the equation:—
where Θ(T) represents the ellipticity at temperature T (Kelvin), ΘN the ellipticity of the native protein, n the number of transitions, ΔΘ1 the ellipticity increment of transition i, R the gas constant and Tmi and HDi the temperature at the transition midpoint (melting temperature) and the parameter which describes the cooperativity (slope) of the corresponding transition, respectively.
In the second set of experiments, the thermal stability of the scFvs in the absence and presence of the disaccharides was investigated. With this type of experiment, we were able to get: 1) the far UV CD spectra at increasing temperatures, which gave information on changes in the secondary structure of the proteins upon heating and 2) the profile of the change in ellipticity at a certain wavelength, also with increasing temperatures, that allowed the calculation of the temperature of transition (Tm). Direct comparison of the Tm in the absence and presence of sugar provided information about the effect of the sugar on the scFvs, a thermal stabilisation (i.e. an increase in the Tm in the presence of the sugar) being indicative of interaction.

Series [3] in a line: scFv-based competitive ELISA, free Gal-α-(1→3)-Gal as standard, immobilized Gal-α-(1→3)-Gal-BSA. It is filed as binding. Particulars: free Gal-α-(1→3)-Gal disaccharide standard; plates coated with Gal-α-(1→3)-Gal-BSA 10 μg/ml; FIG. 6; listed as G12. As for the experimental part:
as §1, with “FIG. 6: Standard curves for competitive ELISA given by scFv clones G12, A4, and A11. Plates were coated with immobilized Gal-α-(1→3)-Gal-BSA [10 μg/ml] and incubated with 2.5 μg/ml of the scFvs in the presence of an increasing concentrations of free Gal-α-(1→3)-Gal. The error bars indicate the standard error of the mean of triplicate determinations. Each” for “Each”
In general terms: In an ELISA, binding on a coated surface is turned into a signal by an enzyme label.

Series [4] is described as follows: Near UV circular dichroism interaction study with disaccharides. It is filed as binding. Particulars: pH 7.2, 20° C. As for the experimental part: The scFvs A4, A11 and G12 were used to check their interaction with Galα(1,3)Galβ1-OMe (Carbosynth) and with melibiose, the latter as negative control.
as §2
Samples were diluted in NaPi (10 mM)-NaCl (150 mM) pH 7.2 and either concentrated by ultrafiltration twice (for small amounts) or exhaustively dialyzed. CD spectra were acquired at 20° C. in a J-810 spectropolarimeter, equipped with a Peltier temperature control system, using a bandwidth of 1 nm, a scan rate of 20 nm/min and a response time of 4 s, collecting data every 0.2 nm and 3 accumulations for each spectrum. Near-UV spectra were registered at around 1.0 mg ml^−1 protein concentration in 1-cm path-length cells while far-UV spectra were recorded in 0.1 cm path-length quartz cells at a protein concentration of around 0.2 mg ml^−1. For all CD spectra, the corresponding buffer baseline was subtracted. Thermal stability was evaluated by measuring ellipticity changes at 208 nm while increasing temperature from 20 to 90° C., with a constant rate of 40° C./h. Ellipticity changes were collected every 0.2° C. and spectra were collected every 10° C. The thermal denaturation profiles were fitted to a sigmoidal function using the equation:—
For orientation: Circular dichroism is widely used to follow secondary structure.

Where [5] appears, read: +4 mM Galα(1,3)Galβ1-OMe, λ 208.
Setting [6] is: +4 mM Galα(1,3)Galβ1-OMe, λ 218.
[7] abbreviates: in the presence of 4 mM Galα(1,3)Galβ1-OMe, 208 nm.

On to `OC[C@H]1O[C@H](O[C@H]2[C@@H](O)[C@@H](CO)O[C@@H](O[C@@H]3[C@H](O)[C@@H](O)[C@@H](O[C@H]4[C@@H](O)[C@@H](CO)OC(O)[C@@H]4O)O[C@@H]3CO)[C@@H]2O)[C@H](O)[C@@H](O)[C@H]1O` (stereo partly drawn) [gal-α(1,3)-gal-β-(1,4)-gal-α-(1,3)-gal], for which the “% Maximum inhibition at Max Conc A4” value with scFv A4 is 73.48%. The “% Maximum inhibition at Max Conc A11” value with scFv A11 was 78.41%. For the same molecule, in the series with scFv G12, the “% Maximum inhibition at Max Conc G12” value was found to be 73.54%.

Take `OC[C@H]1O[C@H](O[C@H]2[C@@H](O)[C@@H](CO)O[C@@H](O[C@H]3[C@H](O)[C@@H](O)C(O)O[C@@H]3CO)[C@@H]2O)[C@H](O)[C@@H](O)[C@H]1O` (stereo partly drawn) [gal-α(1,3)-gal-β-(1,4)-glc]: the “% Maximum inhibition at Max Conc A4” value in the series with scFv A4 stood at 66.20%. Further, the “% Maximum inhibition at Max Conc A11” value in the series with scFv A11 is 73.88%. The “% Maximum inhibition at Max Conc G12” value with scFv G12 was 83.03%.

Regarding `OCC1OC(OC2C(O)C(CO)OC(OC3C(CO)OC(O)C(O)C3O)C2O)C(O)C(O)C1O` (stereo not drawn) [gal-α-(1,3)-gal-β-(1,4)-gal], the “% Maximum inhibition at Max Conc A4” value in the series on scFv A4 turned out to be 68.18%. Also, the “% Maximum inhibition at Max Conc A11” value in the series with scFv A11 came to 76.83%. In the series on scFv G12, the “% Maximum inhibition at Max Conc G12” value was 64.43%.

Regarding “gal-α(1,3)-gal-BSA [gal-α(1,3)-gal-BSA (NGC)]”, the “% Maximum inhibition at Max Conc A4” value in the series on scFv A4 is 36.4%. Further, in the series on scFv A11, the “% Maximum inhibition at Max Conc A11” value is on record as 51.06%. Further, the “% Maximum inhibition at Max Conc G12” value with scFv G12 is 33.93%.

B1: scFv G12: chicken anti-Gal-α-(1→3)-Gal single chain antibody fragment, Seq Id No. 3; clone F1 has the same sequence (protein)
scFv: QAALTQPSSVSANPGETVKITCSGGSYHYGWYQQKSPGSAPVTVIYSNNQRPSGIPSRFSGSTSDSTGTLTITGVQADDEAVYFCGSYDSSNTYAGIFGAGTTLTVLGQSSRSSSGGGSSGGGGSAVTLDESGGGFQTPGGALSLVCKASGFTFSSYSMQWVRQAPGKGLEFVAGIGNSDRYTYFGPAVKGRATISRDNGQSTLRLQLNNLRAEDTATYFCARSGDSGNGCTHPWCSADNINAWGHGTEVIVSSTSGQAGQ
modifications: Synthetic protein sequence for scFv-G12 antibody fragment for detecting non-human Gal-alpha(1-3)-Gal
As to B1, the “Specificity for the Gal-α-(1→3)-Gal epitope compared with GS-1-B4” value in series [1] is “much higher specificity”. In addition, the HD in series [2] (setting [5]) was found to be 71 ± 5 kcal/mol; in series [2] (setting [6]), 137 ± 24 kcal/mol; in series [2] (+4 mM melibiose, λ 218), 116 ± 16 kcal/mol; in series [2] (Pure scFv, λ 208) it was 64 ± 4 kcal/mol; in series [2] (Pure scFv, λ 218) it was 116 ± 21 kcal/mol. Besides, the melting temperature (Tm) (as a rule, the temperature at the midpoint of the melting transition) in series [2] (setting [5]) came to 73.5 ± 0.3 °C; in series [2] (setting [6]), 74.3 ± 0.4 °C; in series [2] (+4 mM melibiose, λ 218), 66.5 ± 0.3 °C; in series [2] (Pure scFv, λ 208) it was 64.7 ± 0.2 °C; in series [2] (Pure scFv, λ 218) it was 66.4 ± 0.4 °C. Also, in series [2] (setting [7]), the “Change in cooperativity (HD)” value was “+6.8 Kcal/mol”. For the same molecule, in series [2] (setting [7]), the “Stabilisation (increase in Tm)” value is 8.8 °C. The ED50 in series [3] is 158 μg/ml and 0.46 mM. Besides, the “Change of near UV CD spectrum” value is “a clear change was detected” in series [4] (4 mM Galα(1,3)Galβ1-OMe) and “did not cause any significant changes” in series [4] (4 mM melibiose (negative control)).
